This passage reports Km results from article PMC4643112, “Diversity of hydrolases from hydrothermal vent sediments of the Levante Bay, Vulcano Island (Aeolian archipelago) identified by activity-based metagenomics and biochemical characterization of new esterases and an arabinopyranosidase” (Applied Microbiology and Biotechnology, 2015).

Substrate in the data set: CCCC(=O)Oc1ccc([N+](=O)[O-])cc1
Briefly: colorimetric p-nitrophenol release. In kind it is biochemical, Rhodothermus profundi. As to conditions: 50 mM potassium phosphate pH 7.0, 0.1 % Triton X-100, standard assay, substrate varied 1-40 mM as printed.

B1: LIPESV12_26 (Rhodothermus profundi) (protein)
chain: MPHPTIQTVDLAYRSYGTEGPPLLILHGLLGSSGNWHTLARNAFSPHFRVFALDLRGHGRSPHAHPIDYPTMAADVQAFMDRHHLESAHVLGHSMGGKVAMELALSAPERVRRLVVVDIAPRSYPARHRTILDALQAIDPARYANRQAIDQALATYVPEAPIRQFLLKNLLYNPATRRYTWQVDLDGLVRYYDRINAAITDGRQFTGPVLFVRGARSDYLTEADWPTIRQLFPDACLATIPEAGHWVHADAPEAFAHLVLAFLQEKSGCVSSSKS
notes: full length, 275 residues, His6-tagged (pET-46c Ek/LIC), E. coli BL21(DE3); primers (translated) start MPHPTIQ, end VSSSKS; catalytic S94, D218, H245
In the case of B1, the Km is 100 µM.
